Target: growth hormone receptor on ZFL cells (zebrafish liver cell line) (zebrafish)
Assay: cell-based or functional assay

B1: recombinant ayu (Plecoglossus altivelis) growth hormone (ligand)
chain: MSENQRLFSIAVNRAQHLHLLAQKMFNDFEGNLSPDDRRQMNKIFLQDFCNSDSIISPVDKHETQKSSVQKLLHISFRLVESWEYPSQALSSSLSLSRFSEIPLKLTDLKLGIDTILRGTQDGLLSLEDNEAQQLPPYENYYQNLGGDDNIHRSYELLACFKKDMHKVETYLTVAKCRRSLEANCTLLEHHHHHH
increase in cell proliferation relative to no growth hormone added (MTS-formazan conversion assay, ZFL cells): 118%

B2: recombinant yellow grouper (Epinephelus awoara) growth hormone (ligand)
chain: MITDGQRLFSIAVSRVQHLHLLAQRLFSDFESSLQTEEQRQLNKIFLQDFCNSDYIISPIDKHETQRSSVLKLLSISYRLVESWEFPSRSLSGGSAPRNQIFPKLSELKTGILLLIRANQDGAELFPDSSALQLAPYGNYYQSLGADESLRRTYELLACFKKDMHKVETYLTVAKCRLSPEANCTLLEHHHHHH
increase in cell proliferation relative to no growth hormone added (MTS-formazan conversion assay, ZFL cells): 58.3%

Reference: US6429305 (ACADEMIA SINICA, dated 2002)
